Literature values as cited in publication PMC11475284.
“And” between values parts separate entries of the source, which are not always exact repeats. Equal values may be shown once.

Molecular target: Axin1 DAX (Homo sapiens) (UniProt O15169)
Experiment: SEC-MALS

Kd: 900 nM and 240 nM
Substance: Axin1 DAX (from UniProt O15169)
